Reference: patent US5371006

Tested on: NotI restriction endonuclease (Nocardia otitidis-caviarum)
Assay: cleavage_in_vitro
Conditions: endonuclease contamination test; 200 units, 4 h, 37 C, NEBuffer 3 + BSA

For phiX174 RFI DNA, the activity (% converted to RF II) was under 5.
